The record followed here is patent US7708999B2, “Remedies for arthritis” (Kyowa Hakko Kirin Co., Ltd., priority 2001, dated 2010).

Test [1] deals with rabbit articular chondrocytes. Nature of the test: Promotion of production of matrix metalloproteinase-3 from rabbit chondrocytes with FGF-8. The class given is cell-based. To be noted: 48 hours. As for the experimental part: Rabbit articular chondrocytes were isolated and cultured by the method described in Example 1. After the chondrocytes became confluent, the culture solution was replaced with 0.5 vol % FBS/DMEM, followed by the culturing for 24 hours. The culture solution was removed, and 1 mL of 0.5 vol % FBS/DMEM (non-stimulated group), 0.5 vol % FBS/DMEM comprising FGF-8 (100 ng/mL)(0 group) or 0.5 vol % FBS/DMEM comprising FGF-8 (100 ng/mL) and anti-FGF-8 neutralizing antibody KM1334 (1, 3 or 10 μg/mL) was added, followed by the culturing for 48 hours. After 48 hours, the culture medium was recovered, the matrix metalloproteinase-3 concentration in the culture medium was measured using rabbit matrix metalloproteinase-3 ELISA system (manufactured by Amersham Biosciences). Three experiments were performed for each condition, and the mean values and the standard error were calculated.

The test system of test [2] is human synovial cells derived from the rheumatoid arthritis patient. The test is described as follows: Promotion of growth of human synovial cells with FGF-8 ([3H]thymidine incorporation). The class given is cell-based. To be noted: FGF-8 10, 100 or 500 ng/mL tested. As for the experimental part:
Rabbit synovial cells were collected by the method of Hamilton et al. (Hamilton J. A. and Slywka J., J. Immunol. 126, 851-855, 1981). The isolated synovial cells were suspended in RPMI 1640 medium comprising 10 vol % FBS (FBS-comprising RPMI 1640 medium is hereinafter referred to as FBS/RPMI 1640), and 10,000 cells was inoculated at each well of a 96-well culture plate. After 24 hours of the culturing, the culture medium of each well was removed, and 200 μL of 0.2 vol % FBS/RPMI 1640 (non-stimulated group) or 0.2 vol % FBS/RPMI 1640 comprising FGF-8 (1, 10 or 100 ng/mL) was added. […] The culturing was further performed for 24 hours, and the radioactivity of [^3H]thymidine incorporated in the cells was measured using a liquid scintillation counter (1205 Beta Plate, manufactured by Perkin Elmer Life Science Japan). Six experiments were performed for each condition, and the mean values and the standard error were calculated.
The same experiment as in Example 3 was performed using human synovial cells derived from the rheumatoid arthritis patient (procured from Toyobo). […] Six experiments were performed for each condition, and the mean values and the standard error were calculated.
On the technique in general: Dividing cells build labelled thymidine or BrdU into new DNA.

Test [3] deals with knee joint of Sprague-Dawley rats. The test is described as follows: Induction of arthritis by intraarticular injection of FGF-8. It is filed as in vivo, rat. To be noted: 50 μL of 1 mg/mL FGF-8 into knee joint of rats, after 3 days. As for the experimental part: Arthritis-like phenotypes were induced in Sprague-Dawley rats (male, 7 weeks old, Japan Charles River) using FGF-8 in the following manner. Fifty μL of FGF-8 solution prepared with saline(manufactured by Otsuka Seiyaku Kojo) to a final concentration of 1 mg/mL was injected into the each knee joint of rats. Further, a group that injected 50 μL of saline into the knee joint was also prepared. One group consisted of 3 rats. After 3 days from the injection of FGF-8 or saline, the inside of the knee articular capsule was washed with 30 μL of saline comprising 0.38 w/v % sodium citrate to collect the lavage fluid, according to the method of Yamada et al (Yamada A. et al., Inflamm. Res., 49, 144-146, 2000). This procedure was repeated ten times to recover 300 μL of the joint lavage fluid. The amount of glycosaminoglycan in the joint lavage fluid was measured by the DMMB method described in Example 1. The patella of the knee joint was isolated, and the cartilaginous portion was digested with papain by the method described in Example 1 to measure the […].

The subject of test [4] is rabbit articular chondrocytes. Nature of the test: Degradation of extracellular matrix of rabbit chondrocytes with FGF-8. It is filed as cell-based. Particulars: 48 hours, FGF-8 1, 10 or 100 ng/mL tested. As for the experimental part: Rabbit articular chondrocytes were isolated from both knees and shoulders of 3-week-old New Zealand white female rabbits and cultured according to the method of Tamura et al. (Tamura T. et al., Eur. J. Pharmacol., 419, 269-274, 2001). That is, the joints of both knees and the joints of both shoulders were isolated to collect the epiphyseal cartilages. […] The culture solution was removed, and the amount of glycosaminoglycan in extracellular matrix remaining on the plate was measured by the dimethymethylene blue (DMMB) method (Chandrasekhar S. et al., Anal. Biochem. 161 103-108, 1987). […] To 75 μL of this digested solution were added 25 μL of a guanidine hydrochloride buffer (2.88 mol/L guanidine hydrochloride, 50 mmol/L sodium acetate, pH 6.8) and 200 μL of a DMMB solution, and the absorbance was measured at 530/590 nm. The concentration of glycosaminoglycan of each sample was calculated from the absorbance of chondroitin sulfate (derived from whale cartilages, manufactured by Seikagaku Kogyo) used as a standard. Three experiments were performed for each condition and the mean values and the standard error were calculated.

The next test deals with rabbit synovial cells. The test is described as follows: Promotion of growth of rabbit synovial cells with FGF-8 ([3H]thymidine incorporation). The class given is cell-based. To be noted: FGF-8 1, 10 or 100 ng/mL tested. As for the experimental part: Rabbit synovial cells were collected by the method of Hamilton et al. (Hamilton J. A. and Slywka J., J. Immunol. 126, 851-855, 1981). The isolated synovial cells were suspended in RPMI 1640 medium comprising 10 vol % FBS (FBS-comprising RPMI 1640 medium is hereinafter referred to as FBS/RPMI 1640), and 10,000 cells was inoculated at each well of a 96-well culture plate. After 24 hours of the culturing, the culture medium of each well was removed, and 200 μL of 0.2 vol % FBS/RPMI 1640 (non-stimulated group) or 0.2 vol % FBS/RPMI 1640 comprising FGF-8 (1, 10 or 100 ng/mL) was added. When the activity of the anti-FGF-8 neutralizing antibody was examined, 200 μL of 0.2 vol % FBS/RPMI 1640 comprising FGF-8 (100 ng/mL) (0 group) or 0.2 vol % FBS/RPMI 1640 comprising FGF-8 (100 ng/mL) and anti-FGF-8 neutralizing antibody KM1334 (0.1, 0.3, 1, 3 or 10 μg/ml) was added to each well. After 48 hours of the culturing, 9.25 kBq per well of [^3H]thymidine was added. The culturing was further performed for 24 hours, and the radioactivity of [^3H]thymidine incorporated in the cells was measured using a liquid scintillation counter (1205 Beta Plate, manufactured by Perkin Elmer Life Science Japan). Six experiments were performed for each condition, and the mean values and the standard error were calculated.

B1: FGF-8: fibroblast growth factor FGF-8, androgen-induced growth factor; manufactured by Peprotech (protein, UniProt P55075 23-233, looked up)
Fibroblast growth factor 8: QEGPGRGPALGRELASLFRAGREPQGVSQQHVREQSLVTDQLSRRLIRTYQLYSRTSGKHVQVLANKRINAMAEDGDPFAKLIVETDTFGSRVRVRGAETGLYICMNKKGKLIAKSNGKGKDCVFTEIVLENNYTALQNAKYEGWYMAFTRKGRPRKGSKTRQHQREVHFMKRLPRGHHTTEQSLRFEFLNYPPFTRSLRGSQRTWAPEPR
As for B1, the “concentration at which FGF-8 significantly increased the production of matrix metalloproteinase-3 from the chondrocytes” value in test [1] was 100 ng/mL. In addition, the “concentration at which FGF-8 significantly promoted the incorporation of [3H]thymidine into the human synovial cells” value in test [2] amounted to 500 ng/mL. In addition, in test [3], the “concentration of glycosaminoglycan in the joint lavage fluid relative to the saline injected group” value is 1.9 times and the “weight of the patella after papain digestion relative to the saline injected group” value was determined as 40%. Further, the “concentration at which FGF-8 significantly decreased the residual amount of glycosaminoglycan in extracellular matrix” value in test [4] is reported as 100 ng/mL. For the same molecule, the “concentration at which FGF-8 significantly promoted the incorporation of [3H]thymidine into the rabbit synovial cells” value in the test with rabbit synovial cells was determined as 100 ng/mL.
